In paper PMC12461897 (mAbs, 2025):

B1: MUR35 Fab (anti-C18-MHC TCR-mimic antibody clone MUR35) (Fab, V domains shown)
VH: EVQLQQSGPELVKPGASVKISCKASGYTFTDHFMNWVRQSHGKSLEWIGDINPNNGGTSYNQKFKGKATLTVDKSSSTAFMEVRSLTSDDSAVYYCARRGYYGSFDYWGQGTTLTVSS
VL: EIVMTQSPATLSLSPGERATLSCRASQGVSSSYFSWYQQTPGQAPRLLISGASTRATGIPARFSGSGSGTDFTLTISSLQPEDFAVYYCQQDYNLPYTFGQGTKLEIK
B2: MUR14 Fab (anti-C18-MHC antibody clone MUR14) (Fab, V domains shown)
VH: EVQLQQSGPELVKPGASVKISCKASGYTFTDYFMNWVKQSHGKSLEWIGDINPNNGGTSYNQKFKGKATLTVDKSSSTAYMELRSLTSEDSAVYYCARGLYDGYYVGFAYWGQGTLVTVSA
VL: EIVMTQSPATLSLSPGERATLSCRASQSVSSSYLSWYQQKPGQAPRLLIYGASTRATGLPARFSGSGSGTDFTLTISSLQPEDFAVYYCHQDYNLPYTFGQGTKLEIK

Target: C18-V peptide presented by HLA-A*02:01 on peptide-pulsed T2 cells (Homo sapiens HLA-A*02:01 and B2M (T2 …))
Experiment: flow cytometry on cells

Binder	binding result
B1	binds
B2	binds
